Data taken from the supplement of paper PMC9112550, “Optimization of the antimicrobial peptide Bac7 by deep mutational scanning” (BMC Biology, 2022).

System: Escherichia coli TOP10
Assay: shrunken log2 fold change of peptide-encoding DNA abundance (4.5 h post-induction vs induction); higher = less antimicrobial activity (less host growth inhibition)
Settings: time post-induction: 4.5 h; library: site-saturation at positions 5, 18, 19, 20
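Further: peptides expressed intracellularly from a pBAD plasmid library in pooled LB shake-flask culture, induced with 0.3% L-arabinose, DNA abundance read by NGS, three biological replicates, DESeq2 with apeglm shrinkage.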

Row | Sequence | shrunken log2 fold change
1 | RRIRDRPPRLPRPRPRPLYAPRP | -0.122
2 | RRIRNRPPRLPRPRPRPPMCPRP | 0.154
3 | RRIRVRPPRLPRPRPRPCCFPRP | -0.00712
4 | RRIRVRPPRLPRPRPRPRVCPRP | 0.165
5 | RRIRGRPPRLPRPRPRPSFRPRP | 0.0601
6 | RRIRDRPPRLPRPRPRPLQLPRP | -0.0775
7 | RRIRVRPPRLPRPRPRPCEEPRP | 0.24
8 | RRIRNRPPRLPRPRPRPVDGPRP | -0.175
9 | RRIRCRPPRLPRPRPRPSFCPRP | -0.559
10 | RRIRCRPPRLPRPRPRPMTAPRP | 0.0275
11 | RRIRFRPPRLPRPRPRPMSMPRP | 0.00945
12 | RRIRLRPPRLPRPRPRPDFYPRP | -0.324
13 | RRIRARPPRLPRPRPRPEPPPRP | 1.27
14 | RRIRSRPPRLPRPRPRPFMIPRP | -0.184
15 | RRIRQRPPRLPRPRPRPCFYPRP | -0.269
16 | RRIRFRPPRLPRPRPRPRSVPRP | -0.00149
17 | RRIRSRPPRLPRPRPRPEWRPRP | 0.478
18 | RRIRHRPPRLPRPRPRPPQMPRP | 0.149
19 | RRIRPRPPRLPRPRPRPWWEPRP | 0.0134
20 | RRIRPRPPRLPRPRPRPRNNPRP | -0.228
21 | RRIRRRPPRLPRPRPRPHFYPRP | 0.0714
22 | RRIRIRPPRLPRPRPRPNIGPRP | -0.358
23 | RRIRIRPPRLPRPRPRPRRQPRP | 0.0868

Row | Sequence | shrunken log2 fold change
24 | RRIRSRPPRLPRPRPRPEFRPRP | 0.15
25 | RRIRDRPPRLPRPRPRPKYIPRP | -0.516
26 | RRIRRRPPRLPRPRPRPGDSPRP | 0.269
27 | RRIRNRPPRLPRPRPRPVWRPRP | 0.636
28 | RRIRCRPPRLPRPRPRPFIDPRP | -0.464
29 | RRIRIRPPRLPRPRPRPPIMPRP | -0.494
30 | RRIRARPPRLPRPRPRPMHLPRP | -0.00822
31 | RRIRNRPPRLPRPRPRPFDTPRP | 0.0291
32 | RRIRCRPPRLPRPRPRPPEYPRP | -0.319
33 | RRIRNRPPRLPRPRPRPGNCPRP | -0.00183
34 | RRIRPRPPRLPRPRPRPRKPPRP | -0.0217
35 | RRIRFRPPRLPRPRPRPKKHPRP | -0.264
36 | RRIRCRPPRLPRPRPRPGIWPRP | 0.485
37 | RRIRERPPRLPRPRPRPVGFPRP | 0.0681
38 | RRIRPRPPRLPRPRPRPSWRPRP | -0.0524
39 | RRIRQRPPRLPRPRPRPQPIPRP | 0.136
40 | RRIRPRPPRLPRPRPRPWELPRP | 0.0728
41 | RRIRFRPPRLPRPRPRPKHVPRP | -0.0891
42 | RRIRCRPPRLPRPRPRPWENPRP | 0.0328
43 | RRIRNRPPRLPRPRPRPFQAPRP | -0.0439
44 | RRIRPRPPRLPRPRPRPQDRPRP | -0.0277
45 | RRIRLRPPRLPRPRPRPCMQPRP | -0.154
46 | RRIRMRPPRLPRPRPRPSDLPRP | -0.035

Row | Sequence | shrunken log2 fold change
47 | RRIRYRPPRLPRPRPRPMMMPRP | -0.497
48 | RRIRTRPPRLPRPRPRPRMYPRP | 0.0541
49 | RRIRVRPPRLPRPRPRPPTCPRP | 0.141
50 | RRIRYRPPRLPRPRPRPFEQPRP | -0.382
51 | RRIRARPPRLPRPRPRPRYEPRP | 0.0403
52 | RRIRYRPPRLPRPRPRPEPDPRP | 0.0689
53 | RRIRCRPPRLPRPRPRPWIAPRP | -0.256
54 | RRIRSRPPRLPRPRPRPPLMPRP | 0.129
55 | RRIRPRPPRLPRPRPRPHRQPRP | -0.149
56 | RRIRDRPPRLPRPRPRPIDEPRP | 0.0126
57 | RRIRSRPPRLPRPRPRPIFEPRP | 0.0577
58 | RRIRWRPPRLPRPRPRPEGMPRP | 0.999
59 | RRIRWRPPRLPRPRPRPESYPRP | -0.134
60 | RRIRPRPPRLPRPRPRPPKCPRP | -0.028
61 | RRIRQRPPRLPRPRPRPTFIPRP | -0.0494
62 | RRIRARPPRLPRPRPRPMYQPRP | -0.21
63 | RRIRARPPRLPRPRPRPGAFPRP | 0.454
64 | RRIRYRPPRLPRPRPRPESCPRP | 0.0195
65 | RRIRDRPPRLPRPRPRPSQSPRP | -0.119
66 | RRIRIRPPRLPRPRPRPRCQPRP | 0.00087
67 | RRIRSRPPRLPRPRPRPQLQPRP | 0.104
68 | RRIRSRPPRLPRPRPRPKIAPRP | 0.0525
69 | RRIRSRPPRLPRPRPRPPLGPRP | 0.399

Row | Sequence | shrunken log2 fold change
70 | RRIRWRPPRLPRPRPRPANKPRP | -0.348
71 | RRIRQRPPRLPRPRPRPSRPPRP | 0.37
72 | RRIRLRPPRLPRPRPRPPMNPRP | -0.114
73 | RRIRHRPPRLPRPRPRPADGPRP | -0.279
74 | RRIRPRPPRLPRPRPRPHNSPRP | -0.454
75 | RRIRMRPPRLPRPRPRPDKLPRP | 0.282
76 | RRIRWRPPRLPRPRPRPDSCPRP | -0.0201
77 | RRIRQRPPRLPRPRPRPPWQPRP | 0.729
78 | RRIRMRPPRLPRPRPRPEKMPRP | 1.68
79 | RRIRMRPPRLPRPRPRPVGFPRP | 0.405
80 | RRIRPRPPRLPRPRPRPLSIPRP | -0.498
81 | RRIRERPPRLPRPRPRPFGLPRP | -0.0181
82 | RRIRDRPPRLPRPRPRPRLQPRP | 0.0983
83 | RRIRDRPPRLPRPRPRPNWRPRP | 0.46
84 | RRIRIRPPRLPRPRPRPTMQPRP | 0.0261
85 | RRIRCRPPRLPRPRPRPGHQPRP | 0.242
86 | RRIRSRPPRLPRPRPRPYIIPRP | -0.502
87 | RRIRFRPPRLPRPRPRPNDNPRP | -0.616
88 | RRIRQRPPRLPRPRPRPHKIPRP | 0.00423
89 | RRIRCRPPRLPRPRPRPGCKPRP | 0.0416
90 | RRIRLRPPRLPRPRPRPQAVPRP | 0.0328
91 | RRIRNRPPRLPRPRPRPRIFPRP | -0.442
